From US20040086519A1

Target: P-selectin (pig)
Assay: cell-based or functional assay

decrease in neutrophil adhesion at stented coronary sites 4 weeks after stenting (pigs, in vivo): 49%
decrease in platelet adhesion at stented coronary sites 4 weeks after stenting (pigs, in vivo): 39%
Substance: soluble P-selectin glycoprotein ligand-1 (PSGL-1) chimera (rPSGL-Ig) (from UniProt Q14242 42-305) (Fc fusion)
decrease in adhesion of 51Cr-platelets to deeply injured arterial segments 1 week following repeat angioplasty (pigs, in vivo): 85%
decrease in adhesion of 111In-neutrophils to deeply injured arterial segments 1 week following repeat angioplasty (pigs, in vivo): 75%
